In patent US8158585B2, “Cross-β structure comprising amyloid-binding proteins and methods for detection of the cross-β structure, for modulating cross-β structures fiber formation and modulating cross-β structure-mediated toxicity” (CrossBeta Biosciences B.V., priority 2002, dated 2012):
Where no end group is shown, it is not given here.

Columns and labels:
[1] = Circular dichroism: percentage β-sheet (k2d software); assay type: physicochemical
Procedure: UV circular dichroism (CD) spectra of peptide and protein solutions ([…] in H2O) were measured on a JASCO J-810 CD spectropolarimeter (Tokyo, Japan). Averaged absorption spectra of five or ten single measurements from 190-240 nm or from 190-250 nm, for fibrin peptides 85, 86, 87 or for albumin, glycated albumin and human Aβ (16-22), respectively, are recorded. The CD spectrum of Aβ (16-22) was measured as a positive control. Aβ (16-22) readily adopts amyloid fiber conformation with cross-β structure when incubated in H2O^45. For albumin and Aβ (16-22), relative percentage of the secondary structure elements present was estimated using k2d software.^48

tPA = target: T1, tPA (Homo sapiens, UniProt P00750); experiment: ELISA: binding of tPA to 86-week glycated albumin-AGE preparations; details: albumin incubated 86 weeks; 10 mM εACA
T1 construct: purchased Boehringer-Ingelheim (Germany)
T1 sequence (P00750 36-562): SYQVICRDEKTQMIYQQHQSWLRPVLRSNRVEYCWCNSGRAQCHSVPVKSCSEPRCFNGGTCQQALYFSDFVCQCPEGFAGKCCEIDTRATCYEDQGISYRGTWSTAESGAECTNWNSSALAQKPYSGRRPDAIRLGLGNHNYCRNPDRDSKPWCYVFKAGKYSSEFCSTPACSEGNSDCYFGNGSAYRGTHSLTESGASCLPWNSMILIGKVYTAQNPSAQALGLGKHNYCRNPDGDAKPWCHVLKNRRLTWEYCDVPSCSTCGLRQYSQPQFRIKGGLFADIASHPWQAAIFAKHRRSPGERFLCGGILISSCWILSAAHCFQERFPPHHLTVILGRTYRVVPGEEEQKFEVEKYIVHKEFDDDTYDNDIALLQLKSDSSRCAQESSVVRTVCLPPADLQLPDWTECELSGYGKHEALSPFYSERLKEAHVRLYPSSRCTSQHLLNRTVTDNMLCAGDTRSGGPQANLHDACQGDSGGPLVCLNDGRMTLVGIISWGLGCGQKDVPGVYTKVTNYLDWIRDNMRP
Procedure: Binding of the cross-B structure marker tPA to albumin-AGE was tested using an ELISA setup. […] Therefore, we used tPA binding to these two peptides as positive control. The 86-week glycated samples and controls were coated to Greiner microlon plates (catalogue #655092, Greiner, Frickenhausen, Germany). Wells were blocked with Superblock (Pierce, Rockford, Ill., USA). All subsequent incubations were performed in PBS/0.1% (v/v) Tween 20 for one hour at room temperature while shaking, with volumes of 50 μl per well. After incubation, wells were washed five times with 300 μl PBS/0.1% (v/v) Tween 20. Increasing concentrations of tPA were added in triplicate to coated wells as well as to control wells. During tPA incubations of 86-week incubated samples, at least a 123,000 times molar excess of ε-amino caproic acid (εACA, 10 mM) was added to the solutions. εACA is a lysine analogue and is used to avoid potential binding of tPA to albumin via its kringle 2 domain.^50 Monoclonal antibody 374b (American Diagnostica, Instrumentation laboratory, Breda, The Netherlands) and, subsequently, RAMPO (Dako diagnostics, Glostrup, Denmark) was added to the wells at a concentration of 0.3 μg ml^−1. Bound peroxidase-labeled antibody was visualized using 100 μl of a solution containing 8 mg ortho-phenylene-diamine in 20 ml 50 mM citric acid/100 mM Na2HPO4 pH 5.0 with 0.0175% (v/v) H2O2. Staining was stopped upon adding 50 μl of a 2 M H2SO4 solution. Absorbance was read at 490 nm on a Vmax kinetic microplate reader (Molecular Devices, CA, USA). Background signals from non-coated control wells were substracted from corresponding coated wells.

[2] = target: T2, tPA-mediated plasminogen activation (Homo sapiens, UniProt P00750); experiment: Plasminogen activation assay; assay type: biochemical; details: plasminogen 200 μg ml−1, tPA 200 pM, 5 μM co-factor, S-2251
T2 construct: purchased Boehringer-Ingelheim (Germany)
T2 sequence (P00750 36-562): as above
Procedure: Plasminogen (200 μg ml^−1) was incubated with tPA (200 pM) in the presence or the absence of a co-factor (5 μM of either endostatin, Aβ (1-40), or one the fibrin-derived peptides 85, 86 and 87). At the indicated time intervals, samples were taken and the reaction was stopped in a buffer containing 5 mM EDTA and 150 mM εACA. After collection of the samples, a chromogenic plasmin substrate S-2251 was added and plasmin activity was determined kinetically in a spectrophotometer at 37° C.

Aβ = target: T3, Aβ (Homo sapiens, UniProt P05067); experiment: Solid-phase binding ELISA of tPA, plasminogen and plasmin to coated Aβ; details: Aβ coated onto plastic 96-well plates
T3 construct: Peptide Aβ (1-40), containing amino acids as present in the described human Alzheimer peptide; purchased Pepscan, Inc. or peptide synthesis facility of the Netherlands Cancer Institute; host or cells: chemical synthesis
T3 sequence (P05067 672-711): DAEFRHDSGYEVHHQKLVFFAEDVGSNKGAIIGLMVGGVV
Procedure: FIG. 3 is a set of graphs depicting binding of tPA, plasminogen and plasmin to Aβ. Aβ was coated onto plastic 96-well plates. Increasing concentrations of either (A) tPA or (B) plasmin(ogen) were allowed to bind to the immobilized peptide. After extensive washing, tPA and plasmin(ogen) binding was assessed by enzyme-linked immunosorbent assays using anti-tPA and anti-plasminogen antibodies. Binding of (C) tPA and (D) plasmin to Aβ in the presence of 50 mM ε-aminocaproic acid (ε-ACA) was assessed as in A and B.
To test whether tPA, plasminogen and plasmin bind Aβ, solid-phase binding assays were performed. Aβ was coated onto plastic 96-well plates and binding of the peptide to either plasmin(ogen) or to tPA was assessed by overlaying the coated peptide with increasing concentrations of either tPA, plasminogen or plasmin. Binding was assessed using specific antibodies to either plasmin(ogen) or to tPA by performing ELISA. […] However, activated plasminogen (plasmin) does bind to Aβ and does so with a kD of 47 nM. […] To test this, use was made of the lysine analogue ε-aminocaproic acid (εACA) and binding of plasmin and tPA to Aβ was tested in its presence. […] In contrast, εACA has no effect on the tPA-Aβ interaction (FIG. 3, Panel C). Thus, it was concluded that plasmin binds to free lysines that were generated during the incubation period, presumably via its lysine-binding Kringle domain(s). In line with this, the kD of plasminogen Kringle domain binding to free lysines in fibrin is similar to the kD for plasmin binding to Aβ.

[3] = system: differentiated N1E-115 cells; experiment: N1E-115 cell detachment (methylene blue staining); assay type: cell-based, mouse; details: 24 hours
Procedure: FIG. 4 is a set of graphs illustrating stimulation of tPA-mediated plasmin formation by Aβ and synergistic stimulation of cell detachment by plasminogen and Aβ. Panel A depicts that plasminogen (200 μg/ml) and tPA (200 pM) were incubated with Aβ (5 μM) or control buffer. Samples were taken from the reaction mixture at the indicated periods of time and plasmin activity was measured by conversion of the chromogenic plasmin substrate S-2251 at 405 nm. […] After 48 hours, the dead cells were washed away and the remaining adherent cells were stained with methylene blue. Plasmin cannot prevent Aβ-induced cell detachment. Panel C illustrates that N1E-115 cells were differentiated and received the indicated concentrations of plasminogen in the presence or absence of 10 μM Aβ. After 24 hours, cell detachment was assessed. […] Panel D is an immunoblot analysis of plasmin formation and laminin degradation. Differentiated N1E-115 cells were treated with or without Aβ (10 μM) in the absence or presence of added plasminogen. Addition of Aβ results in the formation of plasmin (bottom panel) and in degradation of laminin (top panel).
FIG. 5 depicts graphs illustrating that carboxypeptidase B inhibits Aβ-stimulated tPA-mediated plasmin formation and cell detachment. […] Samples were taken from the reaction mixture at the indicated periods of time and plasmin activity was measured by conversion of the chromogenic plasmin substrate S-2251 at 405 nm. The reaction was performed in the absence or the presence of 50 μg ml^−1 carboxypeptidase B (CpB) and in the absence or presence of 3.5 μM carboxypeptidase inhibitor (CPI). CpB greatly attenuates A-stimulated plasmin formation. […] After 24 hours, the cells were photographed. Panel C illustrates that, subsequently, the cells were washed once with PBS and the remaining cells were quantified as percentage-adhered cells by methylene blue staining. In Panel D, the cells were treated as in Panels B and C and medium and cell fractions were collected and analyzed by Western blot using an anti-plasmin(ogen) antibody. Aβ stimulates plasmin formation that is inhibited by CpB.
N1E-115 mouse neuroblastoma cells were routinely cultured in DMEM containing 5% FCS, supplemented with antibiotics. Cells were differentiated into post-mitotic neurons.^52 The cells were exposed to Aβ (50 μg ml^−1) for 24 hours in the presence or absence of 20 μg ml^−1 plasminogen in the presence or absence of 50 μg ml^−1 CpB. Cells were photographed, counted and lysed by the addition of 4× sample buffer (250 mM Tris pH 6.8, 8% SDS, 10% glycerol, 100 mM DTT, 0.01% w/v bromophenol blue) to the medium. The lysate, containing both adherent and floating (presumably dying and/or dead) cells, as well as the culture medium, were analyzed for the presence of plasminogen and plasmin, as well as for laminin, by Western blot analysis using specific antibodies against plasminogen (MoAb 3642, American Diagnostics), laminin (PoAb L9393, Sigma).

Aβ fibrils = target: T4, Aβ fibrils (Homo sapiens, UniProt P05067); experiment: Amyloid pull-down with insoluble Aβ fibers; assay type: binding; details: conditioned BHK medium
T4 construct: Peptide Aβ (1-40), containing amino acids as present in the described human Alzheimer peptide; purchased Pepscan, Inc. (The Netherlands) or peptide synthesis facility at the Netherlands Cancer Institute; host or cells: synthetic peptide
T4 sequence (P05067 672-711): as above
Procedure: Conditioned medium of BHK cells expressing GST-tagged tPA F, F-EGF, EGF, K1, F-EGF-K1, FXII F, HGFa F, Fn F4, Fn F5, Fn F4-5 and GST was used for amyloid binding assays. At first, constructs were adjusted to approximately equal concentration using Western blots. Qualitative binding of the recombinant fragments were evaluated using a “pull-down” assay. To this end, the recombinantly made fragments were incubated with either Aβ or IAPP fibrils. Since these peptides form insoluble fibers, unbound proteins can be easily removed from the fibers following centrifugation. The pellets containing the bound fragments were subsequently washed several times. Bound fragments were solubilized in SDS-sample buffer and analyzed by PAGE, as were unbound proteins in the supernatant fraction and starting material. The gels were analyzed using immunoblotting analysis with the anti-GST antibody Z-5.

**Q.** With “Albumin control: albumin incubated with g6p or glyceraldehyde omitted [reference compound]” as the molecule, how does the “β-sheet (%)” value ([1]; incubation time 2 weeks) read?
**A.** The value was 0%.

**Q.** What about the “β-sheet (%)” value ([1]; incubation time 23 weeks) of the same molecule?
**A.** Its value is 0%.

**Q.** With “Aβ (16-22): human Aβ fragment, positive control that adopts amyloid fiber conformation (KLVFFAE) [reference compound]” as the molecule, how does the “β-sheet (%)” value ([1]; no incubation time given) read?
**A.** Its value is 100%.

**Q.** For “KCNTATCATQRLANFLVHSSNNFGAILSSTNVGSNTY (Peptide fl-hIAPP from Homo sapiens)”, which “binding of amyloid-specific serine protease tPA” value (tPA) is on record?
**A.** Its value is “bound specifically”.

**Q.** And the “stimulation of tPA-mediated plasmin formation” value (“stimulation” below) [2]?
**A.** The value was “stimulate”.

**Q.** And the “stimulation” value ([2]; listed as IAPP)?
**A.** The value was “enhanced”.

**Q.** Which “binding of amyloid-specific serine protease tPA” value (tPA) does the source give for “Albumin-glyceraldehyde: glyceraldehyde-modified albumin” here?
**A.** The value was “bound specifically”.

**Q.** And the “β-sheet (%)” value ([1]; incubation time 2 weeks)?
**A.** Its value is 0%.

**Q.** Which “binding to Aβ” value (Aβ) does the source give for “plasminogen: inactive precursor of plasmin, cleaved by tPA” here?
**A.** The value was “No detectable binding”.

**Q.** What about the “cell adhesion in the absence of Aβ” value [3] of the same molecule?
**A.** Its value is “no effect”.

**Q.** And the “minimal levels required to potentiate Aβ-induced cell detachment” value [3]?
**A.** Its value is 10 to 20 µg/mL.

**Q.** And the “effect on Aβ-induced cell detachment” value ([3]; suboptimal Aβ (10 μM), low plasminogen)?
**A.** The value was “dramatic potentiating effect”.

**Q.** Which “binding to Aβ fibers (pull-down, Western blot)” value (shortened to “binding to Aβ fibers”) (Aβ fibrils) does the source give for “EGF-GST: EGF fragment of human tPA with C-terminal GST tag (CSEPRCFNGGTCQQALYFSDFVCQCPEGFAGKCCEID-{GST}; cysteine pairing not given here)” here?
**A.** The value was “remain in the supernatant”.

**Q.** For “KRLEVDIDIK (Peptide FP10 from Homo sapiens) [compound 87]”, which “stimulation” value [2] is on record?
**A.** Its value is “does not”.

**Q.** With “KRLEVDIDIKIR (Peptide FP12 from Homo sapiens) [compound 86]” as the molecule, how does the “stimulation” value [2] read?
**A.** The value was “stimulate”.

**Q.** For “SNNFGAILSS (Peptide Delta hIAPP from Homo sapiens) [Δ-hIAPP]”, which “stimulation” value [2] is on record?
**A.** The value was “stimulate”.

**Q.** With “KRLEVDIDIKIRS (Peptide FP13 from Homo sapiens) [compound 85]” as the molecule, how does the “stimulation” value [2] read?
**A.** The value was “stimulate”.

**Q.** For “albumin-glyoxylic acid: albumin incubated 86 weeks with 500 mM glyoxylic acid/100 mM NaCNBH3”, which “binding of amyloid-specific serine protease tPA” value (tPA) is on record?
**A.** The value was “No tPA binding”.

**Q.** Which “stimulation” value [2] does the source give for “SNNLGPVLPP (Peptide Delta mIAPP from Homo sapiens) [Δ-mIAPP]” here?
**A.** The value was “not”.

B1: F-EGF-K1-GST: F-EGF-K1 fragment of human tPA with C-terminal GST tag (protein)
chain: SYQVICRDEKTQMIYQQHQSWLRPVLRSNRVEYCWCNSGRAQCHSVPVKSCSEPRCFNGGTCQQALYFSDFVCQCPEGFAGKCCEIDTRATCYEDQGISYRGTWSTAESGAECTNWNSSALAQKPYSGRRPDAIRLGLGNHNYCRNPDRDSKPWCYVFKAGKYSSEFCSTPACSE
modifications: left off: small tags and cut ends; a dimerising Fc or GST
notes: F-EGF-K1 fragment of human tPA with C-terminal GST tag
**Q.** For B1, which “binding to Aβ fibers” value (Aβ fibrils) is on record?
**A.** The value was “Efficient binding”.

B2: K1-GST: K1 fragment of human tPA with C-terminal GST tag (protein)
chain: TRATCYEDQGISYRGTWSTAESGAECTNWNSSALAQKPYSGRRPDAIRLGLGNHNYCRNPDRDSKPWCYVFKAGKYSSEFCSTPACSE
modifications: left off: small tags and cut ends; a dimerising Fc or GST
notes: K1 fragment of human tPA with C-terminal GST tag
**Q.** Which “binding to Aβ fibers” value (Aβ fibrils) does the source give for B2 here?
**A.** Its value is “remain in the supernatant”.
